Test results: the supplement of paper PMC7877785
± gives the uncertainty stated by the source.

Assay: self-splicing fitness, log relative to wild type (ln ratio); higher = more splicing; Tetrahymena group I intron in knt gene, E. coli kanamycin selection, DiMSum; sequences stand for … in CUCUCU…GGAGGGAAAAGUUAUCAGGCAUGCACCUGGUAGCUAGUCUUUAAACCAAUAGAUUGCAUCGGUUUAAAAGGCAAGACCGUCAAAUUGCGGGAAAGGGGUCAACAGCCGUUCAGUACCAAGUCUCAGGGGAAACUUUGAGAUGGCCUUGCAAAGGGUAUGGUAAUAAGCUGACGGACAUGGUCCUAACCACGCAGCCAAGUCCUAAGUCAACAGAUCUUCUGUUGAUAUGGAUGCAGUUCACAGACUAAAUGUCGGUCGGGGAAGAUGUAUUCUUCUCAUAAGAUAUAGUCGGACCUCUCCUUAAUGGGAGCUAGCGGAUGAAGUGAUGCAACACUGGAGCCGCUGGGAACUAAUUUGUAUGCGAAAGUAUAUUGAUUAGUUUUGGAGUACUCGUGGUCG
Outline: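 Six replicate transformations of E. coli BL21(DE3) with a pET-22b(+) library were grown overnight at 37°C or 30°C. The library randomised all eight P1ex-region intron nucleotides, the intron lying in the knt kanamycin-resistance gene, and plates were LB agar with or without 25 μg/mL kanamycin plus 100 μg/mL carbenicillin, 50 μM IPTG and 0.2% rhamnose. Pooled colonies were amplicon-sequenced on an Illumina HiSeq 2500, and fitness is the DiMSum error-weighted combination of wild-type-normalised replicate fold changes, kanamycin versus none.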

Sequence | self-splicing fitness (ln) (30 °C) | self-splicing fitness (ln) (37 °C)
ACUGAGCAAUAUUACGCGAC | -2.51 ± 0.43 | -1.46 ± 0.29
ACUGAGCAAUAUUACGCUGU | -3.42 ± 0.28 | -1.7 ± 0.25
ACUGAGCAAUAUUACGGACG | -2.2 ± 0.13 | -1.9 ± 0.2
ACUGAGCAAUAUUACGGCGU | -1.07 ± 0.079 | 0.0319 ± 0.097
ACUGAGCAAUAUUACGGGCA | -2.07 ± 0.14 | -1.08 ± 0.14
ACUGAGCAAUAUUACGUAGU | -3.48 ± 0.19 | -2.41 ± 0.25
ACUGAGCAAUAUUACGUCCC | -3.06 ± 0.39 | –
ACUGAGCAAUAUUACGUCGG | -2.82 ± 0.16 | -2.47 ± 0.21
ACUGAGCAAUAUUACGUGAU | -3.6 ± 0.14 | -1.76 ± 0.097
ACUUAGCAAUAUUACGAAAG | -2.69 ± 0.19 | -0.697 ± 0.17
ACUUAGCAAUAUUACGAAGU | -3.91 ± 0.22 | -1.61 ± 0.19
ACUUAGCAAUAUUACGAAUG | -2.24 ± 0.11 | -1.13 ± 0.12
ACUUAGCAAUAUUACGACGA | -0.777 ± 0.089 | -0.322 ± 0.088
ACUUAGCAAUAUUACGAGAA | -2.06 ± 0.29 | -2.07 ± 0.23
ACUUAGCAAUAUUACGAGGC | -3.25 ± 0.5 | –
ACUUAGCAAUAUUACGAUCA | -1.45 ± 0.14 | -0.47 ± 0.13
ACUUAGCAAUAUUACGCACG | -1.55 ± 0.1 | -0.683 ± 0.13
ACUUAGCAAUAUUACGCAUC | -2.69 ± 0.19 | -1.64 ± 0.2
ACUUAGCAAUAUUACGCCAG | -2.16 ± 0.15 | -0.941 ± 0.17
ACUUAGCAAUAUUACGCGGU | -3.26 ± 0.41 | -1.84 ± 0.26
ACUUAGCAAUAUUACGCUGC | -3.82 ± 0.32 | -2.36 ± 0.22
ACUUAGCAAUAUUACGCUGU | -3.85 ± 0.2 | -2.19 ± 0.17
ACUUAGCAAUAUUACGGAUG | -1.73 ± 0.13 | -1.53 ± 0.2
ACUUAGCAAUAUUACGGGCA | -1.04 ± 0.091 | 0.0835 ± 0.096
ACUUAGCAAUAUUACGGUAU | -3.18 ± 0.12 | -2.5 ± 0.13
ACUUAGCAAUAUUACGGUGU | -2.79 ± 0.11 | -1.64 ± 0.097

Sequence | self-splicing fitness (ln) (30 °C) | self-splicing fitness (ln) (37 °C)
ACUUAGCAAUAUUACGUACU | -0.497 ± 0.094 | -0.384 ± 0.1
ACUUAGCAAUAUUACGUAGG | -1.25 ± 0.079 | -1.12 ± 0.11
ACUUAGCAAUAUUACGUAUC | -3.56 ± 0.22 | -2.37 ± 0.24
ACUUAGCAAUAUUACGUCCU | -0.527 ± 0.085 | -0.132 ± 0.13
ACUUAGCAAUAUUACGUUAG | -2.09 ± 0.09 | -1.5 ± 0.12
AGAAAGCAAUAUUACGAAUA | -2.51 ± 0.17 | -0.949 ± 0.14
AGAAAGCAAUAUUACGACGC | -0.72 ± 0.11 | -0.219 ± 0.14
AGAAAGCAAUAUUACGAGAC | -2.65 ± 0.3 | -2.13 ± 0.47
AGAAAGCAAUAUUACGAUAC | -1.78 ± 0.14 | -1.54 ± 0.19
AGAAAGCAAUAUUACGAUCC | -0.604 ± 0.07 | 0.0529 ± 0.11
AGAAAGCAAUAUUACGAUGU | -0.998 ± 0.063 | -0.229 ± 0.083
AGAAAGCAAUAUUACGCAAU | -2.18 ± 0.072 | -0.965 ± 0.075
AGAAAGCAAUAUUACGCCAC | – | -2.07 ± 0.41
AGAAAGCAAUAUUACGCUGA | -3.08 ± 0.21 | -0.267 ± 0.15
AGAAAGCAAUAUUACGGCGU | 0.239 ± 0.073 | 0.133 ± 0.091
AGAAAGCAAUAUUACGGCUC | -1.28 ± 0.091 | -0.338 ± 0.12
AGAAAGCAAUAUUACGGGAA | -2.72 ± 0.13 | -1.73 ± 0.12
AGAAAGCAAUAUUACGGGGC | -4.36 ± 0.3 | -2.05 ± 0.21
AGAAAGCAAUAUUACGGUAG | -3.84 ± 0.22 | -2.37 ± 0.21
AGAAAGCAAUAUUACGUCGC | -2.69 ± 0.16 | -1.76 ± 0.15
AGAAAGCAAUAUUACGUCUC | -2.56 ± 0.43 | –
AGAAAGCAAUAUUACGUGUG | -2.13 ± 0.081 | -1.78 ± 0.095
AGACAGCAAUAUUACGAAUG | -2.45 ± 0.11 | -1.86 ± 0.12
AGACAGCAAUAUUACGAGAA | -2.15 ± 0.37 | -2.43 ± 0.31
AGACAGCAAUAUUACGAGCA | -1.46 ± 0.12 | -0.648 ± 0.13
AGACAGCAAUAUUACGAUUA | -1.15 ± 0.062 | -0.971 ± 0.086

Sequence | self-splicing fitness (ln) (30 °C) | self-splicing fitness (ln) (37 °C)
AGACAGCAAUAUUACGAUUG | -2.94 ± 0.16 | -3.15 ± 0.28
AGACAGCAAUAUUACGCCAU | -3.25 ± 0.26 | -1.78 ± 0.17
AGACAGCAAUAUUACGCCUG | -1.88 ± 0.12 | 0.171 ± 0.11
AGACAGCAAUAUUACGCUCU | -2.08 ± 0.18 | -0.598 ± 0.15
AGACAGCAAUAUUACGCUUG | -2.71 ± 0.13 | -1 ± 0.12
AGACAGCAAUAUUACGGGGC | -3.97 ± 0.23 | -1.69 ± 0.17
AGACAGCAAUAUUACGGUGG | -3 ± 0.12 | -1.89 ± 0.17
AGACAGCAAUAUUACGGUGU | -3.34 ± 0.12 | -2.59 ± 0.12
AGACAGCAAUAUUACGUAAC | -3.82 ± 0.15 | -1.69 ± 0.15
AGACAGCAAUAUUACGUCAG | -2.3 ± 0.092 | -0.807 ± 0.11
AGACAGCAAUAUUACGUCAU | -2.86 ± 0.13 | -2.17 ± 0.15
AGACAGCAAUAUUACGUCGA | -1.01 ± 0.089 | -1.07 ± 0.12
AGACAGCAAUAUUACGUCUG | -1.6 ± 0.076 | -0.662 ± 0.08
AGACAGCAAUAUUACGUGCC | -0.679 ± 0.12 | -0.815 ± 0.17
AGACAGCAAUAUUACGUGCU | -3.14 ± 0.12 | -1.56 ± 0.085
AGACAGCAAUAUUACGUGGG | -3.37 ± 0.13 | -2.37 ± 0.13
AGAGAGCAAUAUUACGAAUA | – | -0.719 ± 0.49
AGAGAGCAAUAUUACGACAA | – | -2.46 ± 0.48
AGAGAGCAAUAUUACGACCA | – | -0.796 ± 0.48
AGAGAGCAAUAUUACGACGG | -3.4 ± 0.28 | –
AGAGAGCAAUAUUACGAGCG | -2.63 ± 0.3 | –
AGAGAGCAAUAUUACGAUGA | -3.27 ± 0.24 | -2.37 ± 0.23
AGAGAGCAAUAUUACGAUUA | -2.43 ± 0.25 | -2.57 ± 0.32
AGAGAGCAAUAUUACGCACA | -3.27 ± 0.48 | –
AGAGAGCAAUAUUACGCCCA | – | -0.88 ± 0.36
AGAGAGCAAUAUUACGCCGC | -3.9 ± 0.3 | -1.49 ± 0.25

Sequence | self-splicing fitness (ln) (30 °C) | self-splicing fitness (ln) (37 °C)
AGAGAGCAAUAUUACGCGGA | – | -2.21 ± 0.34
AGAGAGCAAUAUUACGGACC | -2.79 ± 0.3 | -1.05 ± 0.33
AGAGAGCAAUAUUACGGGGU | – | -2.65 ± 0.26
AGAGAGCAAUAUUACGGGUA | -4.04 ± 0.42 | -1.47 ± 0.19
AGAGAGCAAUAUUACGGUAC | – | -2.12 ± 0.27
AGAGAGCAAUAUUACGGUCA | -2.48 ± 0.49 | -1.97 ± 0.24
AGAGAGCAAUAUUACGGUUC | -4.09 ± 0.37 | -2.11 ± 0.29
AGAGAGCAAUAUUACGUCCC | -2.37 ± 0.33 | -1.25 ± 0.37
AGAGAGCAAUAUUACGUGUA | -2.73 ± 0.3 | -2.78 ± 0.32
AGAGAGCAAUAUUACGUUGC | -2.89 ± 0.23 | -2.89 ± 0.32
AGAUAGCAAUAUUACGAAAC | -3.23 ± 0.37 | –
AGAUAGCAAUAUUACGAACC | 0.553 ± 0.29 | -0.637 ± 0.27
AGAUAGCAAUAUUACGAAGA | – | -1.12 ± 0.39
AGAUAGCAAUAUUACGAAGG | -2.57 ± 0.2 | –
AGAUAGCAAUAUUACGAAGU | -3.27 ± 0.14 | -1.83 ± 0.13
AGAUAGCAAUAUUACGACAA | -0.741 ± 0.072 | -0.217 ± 0.077
AGAUAGCAAUAUUACGAGAG | -3.7 ± 0.29 | -2.37 ± 0.25
AGAUAGCAAUAUUACGAGCU | -0.432 ± 0.13 | -1.02 ± 0.13
AGAUAGCAAUAUUACGAGGU | -2.94 ± 0.24 | -2.17 ± 0.24
AGAUAGCAAUAUUACGCAUG | -1.58 ± 0.14 | -0.884 ± 0.14
AGAUAGCAAUAUUACGCCAC | – | -2.5 ± 0.35
AGAUAGCAAUAUUACGCCGG | -2.14 ± 0.44 | –
AGAUAGCAAUAUUACGCGCC | -0.504 ± 0.15 | -0.626 ± 0.27
